Laboratory results reported in US20260250381A1.
Where a chain is given by its changes, count along the chain named. Values belong to the binder of their own block, whether it stands above or below them.

What was measured:
human TREM2 (human) [1] = biological target: T1, human TREM2 (human) (UniProt Q9NZC2); experiment: 2nd screen, 100 nM Ab
T1 sequence (looked up): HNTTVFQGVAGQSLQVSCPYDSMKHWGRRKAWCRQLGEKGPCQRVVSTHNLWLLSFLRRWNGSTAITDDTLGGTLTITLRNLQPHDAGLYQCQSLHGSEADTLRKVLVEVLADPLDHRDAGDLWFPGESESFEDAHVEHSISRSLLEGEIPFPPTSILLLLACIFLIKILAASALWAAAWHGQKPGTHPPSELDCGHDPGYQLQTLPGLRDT

human TREM2 (human) [2] = biological target: T1, human TREM2 (human); experiment: 1st screen, 110 nM Ab

Binding Signal (fold over 6E7 parental antibody) (human TREM2 (human) [1]): 1.02 fold
Binding Signal (fold over 6E7 parental antibody) (human TREM2 (human) [2]): 0.34 fold
B1: 6E7 variant V34 (antibody, V domains shown)
VH: EVQLVQSGAEVKKPGESLKISCKGSGYSFTSYWIAWVRQMPGKGLEWMGIIYPGDSDTRYSPSFQGQVTISADKSISTAYLQWSSLKASDTAMYFCARQRTFYYDSSDYFDYWGQGTLVTVSS
VL: DIQMTQSPSSVSASVGDRVTITCRASQGISSWLAWYQQKPGKAPKLLIYAASSLQDGVPSRFSGSGSGTDFTLTISSLQPEDFATYFCQQADSFPRTFGQGTKLEIK

Binding Signal (fold over 6E7 parental antibody) (human TREM2 (human) [1]): 0.77 fold
Binding Signal (fold over 6E7 parental antibody) (human TREM2 (human) [2]): 0.28 fold
B2: 6E7 variant V8 (antibody, V domains shown)
VH: B1 VH with R59K
VL: B1 VL with D56N

Binding Signal (fold over 6E7 parental antibody) (human TREM2 (human) [1]): 0.7 fold
Binding Signal (fold over 6E7 parental antibody) (human TREM2 (human) [2]): 0.76 fold
B3: 6E7 variant V10 (antibody, V domains shown)
VH: B1 VH
VL: B1 VL with A50S, D56N

Binding Signal (fold over 6E7 parental antibody) (human TREM2 (human) [1]): 0.84 fold
Binding Signal (fold over 6E7 parental antibody) (human TREM2 (human) [2]): 0.8 fold
B4: 6E7 variant V67 (antibody, V domains shown)
VH: B1 VH with I50M
VL: B1 VL with D56N

Binding Signal (fold over 6E7 parental antibody) (human TREM2 (human) [1]): 0.85 fold
Binding Signal (fold over 6E7 parental antibody) (human TREM2 (human) [2]): 0.84 fold
B5: 6E7 variant V57 (antibody, V domains shown)
VH: B1 VH
VL: B1 VL with R24A, D56N

Binding Signal (fold over 6E7 parental antibody) (human TREM2 (human) [1]): 0.36 fold
Binding Signal (fold over 6E7 parental antibody) (human TREM2 (human) [2]): 0.33 fold
B6: 6E7 variant V90 (antibody, V domains shown)
VH: B1 VH with Y32E
VL: B1 VL with S31R, D56N

Binding Signal (fold over 6E7 parental antibody) (human TREM2 (human) [1]): 1.05 fold
Binding Signal (fold over 6E7 parental antibody) (human TREM2 (human) [2]): 0.35 fold
B7: 6E7 variant V93 (antibody, V domains shown)
VH: B1 VH
VL: B1 VL with S31G, D56N

Binding Signal (fold over 6E7 parental antibody) (human TREM2 (human) [1]): 0.56 fold
Binding Signal (fold over 6E7 parental antibody) (human TREM2 (human) [2]): 0.2 fold
B8: 6E7 variant V6 (antibody, V domains shown)
VH: B1 VH with Y32M
VL: B1 VL with D56N

Binding Signal (fold over 6E7 parental antibody) (human TREM2 (human) [1]): 0.47 fold
Binding Signal (fold over 6E7 parental antibody) (human TREM2 (human) [2]): 0.42 fold
B9: 6E7 variant V47 (antibody, V domains shown)
VH: B1 VH
VL: B1 VL with D56N, R96M

Binding Signal (fold over 6E7 parental antibody) (human TREM2 (human) [1]): 0.96 fold
Binding Signal (fold over 6E7 parental antibody) (human TREM2 (human) [2]): 0.83 fold
B10: 6E7 variant V46 (antibody, V domains shown)
VH: B1 VH
VL: B1 VL with S53T, D56N

Binding Signal (fold over 6E7 parental antibody) (human TREM2 (human) [1]): 0.48 fold
Binding Signal (fold over 6E7 parental antibody) (human TREM2 (human) [2]): 0.37 fold
B11: 6E7 variant V71 (antibody, V domains shown)
VH: B1 VH
VL: B1 VL with D56N, F94E

Binding Signal (fold over 6E7 parental antibody) (human TREM2 (human) [1]): 0.29 fold
Binding Signal (fold over 6E7 parental antibody) (human TREM2 (human) [2]): 0.2 fold
B12: 6E7 variant V83 (antibody, V domains shown)
VH: B1 VH
VL: B1 VL with D56N, D92V

Binding Signal (fold over 6E7 parental antibody) (human TREM2 (human) [1]): 0.84 fold
Binding Signal (fold over 6E7 parental antibody) (human TREM2 (human) [2]): 0.79 fold
B13: 6E7 variant V70 (antibody, V domains shown)
VH: B1 VH
VL: B1 VL with S52G, D56N

Binding Signal (fold over 6E7 parental antibody) (human TREM2 (human) [1]): 0.52 fold
Binding Signal (fold over 6E7 parental antibody) (human TREM2 (human) [2]): 0.7 fold
B14: 6E7 variant V79 (antibody, V domains shown)
VH: B1 VH with R59N
VL: B1 VL with D56N

Binding Signal (fold over 6E7 parental antibody) (human TREM2 (human) [1]): 0.79 fold
Binding Signal (fold over 6E7 parental antibody) (human TREM2 (human) [2]): 0.3 fold
B15: 6E7 variant V82 (antibody, V domains shown)
VH: B1 VH
VL: B1 VL with A51G, D56N

Binding Signal (fold over 6E7 parental antibody) (human TREM2 (human) [1]): 0.87 fold
Binding Signal (fold over 6E7 parental antibody) (human TREM2 (human) [2]): 0.31 fold
B16: 6E7 variant V94 (antibody, V domains shown)
VH: B1 VH
VL: B1 VL with S52A, D56N

Binding Signal (fold over 6E7 parental antibody) (human TREM2 (human) [1]): 0.53 fold
Binding Signal (fold over 6E7 parental antibody) (human TREM2 (human) [2]): 0.43 fold
B17: 6E7 variant V45 (antibody, V domains shown)
VH: B1 VH
VL: B1 VL with W32F, D56N

Binding Signal (fold over 6E7 parental antibody) (human TREM2 (human) [1]): 0.52 fold
Binding Signal (fold over 6E7 parental antibody) (human TREM2 (human) [2]): 0.65 fold
B18: 6E7 variant V44 (antibody, V domains shown)
VH: B1 VH with G54S
VL: B1 VL with D56N

Binding Signal (fold over 6E7 parental antibody) (human TREM2 (human) [1]): 1.11 fold
Binding Signal (fold over 6E7 parental antibody) (human TREM2 (human) [2]): 0.86 fold
B19: 6E7 variant V78 (antibody, V domains shown)
VH: B1 VH with S28R
VL: B1 VL with D56N

Binding Signal (fold over 6E7 parental antibody) (human TREM2 (human) [1]): 0.61 fold
Binding Signal (fold over 6E7 parental antibody) (human TREM2 (human) [2]): 0.25 fold
B20: 6E7 variant V91 (antibody, V domains shown)
VH: B1 VH with G54D
VL: B1 VL with D56N

Binding Signal (fold over 6E7 parental antibody) (human TREM2 (human) [1]): 0.23 fold
Binding Signal (fold over 6E7 parental antibody) (human TREM2 (human) [2]): 0.17 fold
B21: 6E7 variant V81 (antibody, V domains shown)
VH: B1 VH
VL: B1 VL with W32L, D56N

Binding Signal (fold over 6E7 parental antibody) (human TREM2 (human) [1]): 0.74 fold
Binding Signal (fold over 6E7 parental antibody) (human TREM2 (human) [2]): 0.25 fold
B22: 6E7 variant V66 (antibody, V domains shown)
VH: B1 VH with Y27T
VL: B1 VL with D56N

Binding Signal (fold over 6E7 parental antibody) (human TREM2 (human) [1]): 0.59 fold
Binding Signal (fold over 6E7 parental antibody) (human TREM2 (human) [2]): 0.23 fold
B23: 6E7 variant V56 (antibody, V domains shown)
VH: B1 VH with S61Q
VL: B1 VL with D56N

Binding Signal (fold over 6E7 parental antibody) (human TREM2 (human) [1]): 0.32 fold
Binding Signal (fold over 6E7 parental antibody) (human TREM2 (human) [2]): 0.11 fold
B24: 6E7 variant V7 (antibody, V domains shown)
VH: B1 VH with Y32E
VL: B1 VL with D56N

Binding Signal (fold over 6E7 parental antibody) (human TREM2 (human) [1]): 0.5 fold
Binding Signal (fold over 6E7 parental antibody) (human TREM2 (human) [2]): 0.59 fold
B25: 6E7 variant V80 (antibody, V domains shown)
VH: B1 VH with T101N
VL: B1 VL with D56N

Binding Signal (fold over 6E7 parental antibody) (human TREM2 (human) [1]): 0.4 fold
Binding Signal (fold over 6E7 parental antibody) (human TREM2 (human) [2]): 0.41 fold
B26: 6E7 variant V69 (antibody, V domains shown)
VH: B1 VH
VL: B1 VL with W32Y, D56N

Binding Signal (fold over 6E7 parental antibody) (human TREM2 (human) [1]): 0.33 fold
Binding Signal (fold over 6E7 parental antibody) (human TREM2 (human) [2]): 0.2 fold
B27: 6E7 variant V43 (antibody, V domains shown)
VH: B1 VH with D57G
VL: B1 VL with D56N

Binding Signal (fold over 6E7 parental antibody) (human TREM2 (human) [1]): 0.29 fold
Binding Signal (fold over 6E7 parental antibody) (human TREM2 (human) [2]): 0.21 fold
B28: 6E7 variant V35 (antibody, V domains shown)
VH: B1 VH
VL: B1 VL with D56N, D92Y

Binding Signal (fold over 6E7 parental antibody) (human TREM2 (human) [1]): 0.54 fold
Binding Signal (fold over 6E7 parental antibody) (human TREM2 (human) [2]): 0.55 fold
B29: 6E7 variant V54 (antibody, V domains shown)
VH: B1 VH with Y32Q
VL: B1 VL with D56N

Binding Signal (fold over 6E7 parental antibody) (human TREM2 (human) [1]): 0.66 fold
Binding Signal (fold over 6E7 parental antibody) (human TREM2 (human) [2]): 0.24 fold
B30: 6E7 variant V55 (antibody, V domains shown)
VH: B1 VH with R59I, F64H
VL: B1 VL with D56N

Binding Signal (fold over 6E7 parental antibody) (human TREM2 (human) [1]): 0.41 fold
Binding Signal (fold over 6E7 parental antibody) (human TREM2 (human) [2]): 0.45 fold
B31: 6E7 variant V42 (antibody, V domains shown)
VH: B1 VH with Y32A
VL: B1 VL with D56N

Binding Signal (fold over 6E7 parental antibody) (human TREM2 (human) [1]): 0.6 fold
Binding Signal (fold over 6E7 parental antibody) (human TREM2 (human) [2]): 0.19 fold
B32: 6E7 variant V59 (antibody, V domains shown)
VH: B1 VH
VL: B1 VL with D56N, Q89M

Binding Signal (fold over 6E7 parental antibody) (human TREM2 (human) [1]): 0.65 fold
Binding Signal (fold over 6E7 parental antibody) (human TREM2 (human) [2]): 0.22 fold
B33: 6E7 variant V92 (antibody, V domains shown)
VH: B1 VH with Y103H
VL: B1 VL with D56N

Binding Signal (fold over 6E7 parental antibody) (human TREM2 (human) [1]): 0.43 fold
Binding Signal (fold over 6E7 parental antibody) (human TREM2 (human) [2]): 0.44 fold
B34: 6E7 variant V68 (antibody, V domains shown)
VH: B1 VH with Y103R
VL: B1 VL with D56N

Binding Signal (fold over 6E7 parental antibody) (human TREM2 (human) [1]): 0.54 fold
Binding Signal (fold over 6E7 parental antibody) (human TREM2 (human) [2]): 0.67 fold
B35: 6E7 variant V9 (antibody, V domains shown)
VH: B1 VH with T101G
VL: B1 VL with D56N

Binding Signal (fold over 6E7 parental antibody) (human TREM2 (human) [1]): 0.68 fold
Binding Signal (fold over 6E7 parental antibody) (human TREM2 (human) [2]): 0.28 fold
B36: 6E7 variant V58 (antibody, V domains shown)
VH: B1 VH
VL: B1 VL with A50K, D56N
